Results published in the supplement of paper PMC9170038.

System: MS2 coat protein
Experiment: apparent KD of MS2 coat protein; higher = weaker reporter binding
Conditions: Eterna round: R107
Outline: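 On-chip transcription from Illumina sequencing clusters produced the designed RNA switches. These were titrated with SNAP-549-labelled MS2 coat protein (twofold steps, 0.7 or 1.5 nM to 3 µM) in 100 mM Tris-HCl pH 7.5, 80 mM KCl, 4 mM MgCl2, with or without constant ligand. The apparent KD given is the per-design median of normalised cluster binding-curve fits.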

[1] = input ligand: theophylline 20 uM
[2] = input ligand: tryptophan 2.4 mM
[3] = input ligand: theophylline 2 mM

| Sequence | apparent KD of MS2 coat protein (input ligand: arginine 13.2 mM) [nM] | apparent KD of MS2 coat protein [1] [nM] | apparent KD of MS2 coat protein [2] [nM] | apparent KD of MS2 coat protein (input ligand: none) [nM] | apparent KD of MS2 coat protein [3] [nM] |
| --- | --- | --- | --- | --- | --- |
| UGACAUUGCUGCGAUACCAGACAUGAGGAUCACCCAUGUACCAAGGUACGAAAAUAACAUGUCCCUUGGCAGCGCAGCAAUGUCU [MAT - Exclusion Theophlline B - Mod of Eli - D4] | 12.6 | 25.7 | 12.1 |  |  |
| ACCGCAUCCGUAUAGGAUGCGGCCCAUGAAGGAGCGUGGGAAACCACAGGUAGGUCGCAUGGAUUACAUGAGGAUCACCCAUGUG [Skyfall] | 104 | 378 | 408 | 400 | 706 |
| GACAUGAGGAUCACCCAUGUACCGCGAGAAGGAGCGCGGAUAAACGCAGGUAGGUCGCUCGUGGGCUCACAUUCAAUUGUAAGCU [Digece] | 17.5 | 49.8 | 31.6 | 39.2 | 58.3 |
| GUCCUCAUGACGGCCGCCACUACACAUGAGGAUCACCCAUGUAAUGAUCCCUUAAAUGAUAAUAGUAGGACCGGGUCACUGUAAG [Same State Typptophan B GF12] | 119 | 569 |  |  | 743 |
| UAUUUUGGGCGCGAGCCCGGGAUAAUUGAUACCAGUGAAGAAGAGCGCCCUUGGCAGCGAAUCCUAACAUGAGGAUCACCCAUGU [5.Q] | 52.5 | 65.4 | 45.1 |  |  |
| AGAGCAUUGACGGCCGCCACUCAUGUCACAUGAGGAUCACCCAUGUGAUGGGUGAUCGCCCGGUUGAGGACCGGGUCAAUGCUCA [Omei Tryp SS B v2] | 42.9 | 123 |  |  | 121 |
| AAUAUAUAUCACGAACUGUGGUGUAUGUUGCGAGGACCGGUACGGCCGCCACUCGGCCGGUGGUACAUGAGGAUCACCCAUGUUG [XTryp A #9] | 35.3 | 48.7 | 28.2 | 25.3 | 40.1 |
| ACGUAAUGCAGAAGGAGCGUCAACCUCUUACAUGAGGAUCACCCAUGUUACAUGGUUGUAUGACAGGUAGGUCGCUGAAGUACGA [JR_ExcArginiB_Sub001] | 31.9 | 50.5 | 36.6 | 34.7 | 50.4 |
| GAUGAACUAUUUGAUACCAGACUACAUGAGGAUCACCCAUGUGUGUUAAUUUUUCAGUCAGUCCCUUGGCAGCAAAUAGUUUAUC [XTheo B #2] | 42.2 | 70.7 | 32.1 |  |  |
| AUGCAUAGCCGAAGGAGCGCAAUAGAAUGACAUGAGGAUCACCCAUGUGUGUGAUGUGGAUUGCAGGUAGGUCGCGGAGUGGUAU [Exclusion - Arginine B (Freestyle 4)] | 34.2 | 52.6 | 30.5 | 37.7 | 48.1 |
| AGCUCGCAUCCUCUAGCGUCAAAGACGCGUCGAGGACCGGUACGGCCGCCACUCGACUUGAGGAUCACCCAAGUCUAAGCGAGCA [TrypAX 11 #SwitchBubble #AlternativeMS2 #MS2Late #CuTurnoff] | 54.8 | 91.1 | 488 | 92.6 | 215 |
| UUAUUUAUAAUGGAUACCAGUGCUGUGGCCCGGCAUCCUGACAUGAGGAUCACCCAUGUGUACCCUUGGCAGCUGUUAUGGGUUU [XTheo B #20] | 20.7 | 28.3 | 19.3 |  |  |
| GGCACCGGGCGAAGGAGCGUGAAGACAUGAGGAUCACCCAUGUAGAGGCCCGGACAGGGUUCGCAGGUAGGUCGCGCGCGGUGCC [#1 Same State - Arginine B Attempt #8 (HarryS)] | 21.2 | 22.3 | 16.9 | 14.5 | 16.8 |
| AGUACAUGAGGAUCACCCAUGUACCAUGAUACCAGACAUGAAAAUGUCCCUUGGCAGCGUGGGUGAGGCAUCCGAAAGGAUGCCC [#05 SameState-TheophyllineA] | 51.1 | 185 | 77.7 | 223 | 30.5 |
| AAAAUAAAACGUGCAAAAUCCUAAUGUGAAGGAGCGCACGAAAGUGCAGGUAGGUCGCACAUGAGGAUCACCCAUGUAGCACGAA [MAT - Exclusion Arginine A - Mod of Eli - D1] | 60.1 | 221 | 230 | 300 | 367 |
| AGAUUUAUUUUGACCGGGCUCAUUCCUGAAGGAGCGCAGAACAAUGCAGGUAGGUCGCAGGACAUGAGGAUCACCCAUGUCAAGC [Isaes] | 14.2 | 18.3 | 18.8 | 20.7 | 19.9 |
| ACAUGAGGAUCACCCAUGUAUUACCGGGAAGGAGCGGCCGCAAGGCCAGGUAGGUCGCUCGGUGUCGUGCUGUAAAGCACGACAA [#1 Same State - Arginine A Attempt #29 (HarryS)] | 11.9 | 16.7 | 9.61 | 10.2 | 11.5 |
| UAUAUAUAGGGAAGGAGCGGGAACAUGAGGAUCACCCAUGUACAUGAGGAUCACCCAUGUACCCAGGUAGGUCGCCCAUAUAUAU [Exclusion - Arginine B] | 90.7 | 227 | 241 | 250 | 276 |

| Sequence | apparent KD of MS2 coat protein (input ligand: arginine 13.2 mM) [nM] | apparent KD of MS2 coat protein [1] [nM] | apparent KD of MS2 coat protein [2] [nM] | apparent KD of MS2 coat protein (input ligand: none) [nM] | apparent KD of MS2 coat protein [3] [nM] |
| --- | --- | --- | --- | --- | --- |
| CGCGGGCCACAUGAGGAUCACCCAUGUGAAGGAGCGGCGAAUAAGCCAGGUAGGUCGCGCAUGAAUAAAUCAUGUAGGUGGCGAA [XArg-A 10 V1&2] | 16.4 | 22.8 | 20.2 |  | 21.6 |
| UGUAUGUGAUCUGAUACCAGUGACACGAAAGUGAAUCGCUUGAGGAUCACCCAAGUAAAACACCCUUGGCAGCAGAUCGCAUACU [Full moving switch bubble 1] | 20.3 | 23.5 | 15.6 | 15.6 | 25 |
| CUUGAGACAUGAGGAUCACCCAUGUCCGAAGGAGCGUGCGAAAGCACAGGUAGGUCGCGGACGUGAGGAUCUCCCAUGUGAGCGA [#25 Exclusion - Arginine A] | 14.3 | 28.2 | 17.8 | 35.9 | 25.7 |
| UAUCCACAUGAGGAUCACCCAUGUAGGGAAGGAGCGGUGAAUGCACCAGGUAGGUCGCCUUGCUGAGGACAGCCGGUGGAUUCGU [Exclusion - Arginine A (Freestyle 26)] | 16.7 | 19 | 16 | 12.2 | 23 |
| AGCGAUAUGCAUGAUACCAGCUACAUGAGGAUCACCCAUGUACGUCAGUAAUGACUGUGUAGCCCUUGGCAGCAUAGAGCAUGUA [Exclusion - Theophylline B (Freestyle 13)] | 21.7 | 35.4 | 22.7 |  |  |
| CUCAUCCACGCGGCCGCCACUAUAUUGUGGUGCGUAUGUGUCGUAAUACAUGAGGAUCACCCAUGUAGGACCGGGCGUGGAUGAG [#10 Exclusion Tryptophan B] | 10.9 | 14.3 |  |  | 11.6 |
| AGUACUCGAACGGAUACCAGCCGGACAUGAGGAUCACCCAUGUCCUACCUCUGUUCGGUUGGCCCUUGGCAGCCGUUCGUGUACA [Omei Theo B SS A v7] | 41.4 | 580 | 128 |  |  |
| UGUAUAUACGGAAGGAGCGUGUAAGAUUAAGAACAUGAGGAUCACCCAUGUUUUAAGGGAACACAGGUAGGUCGCCGUAUAUAUG [11.O] | 9.29 | 14.1 | 10.3 | 12.4 | 11.7 |
| UUGUAUAUGCGAAGGAGCGGGAAAUAUAUAUAUAUAAUCCUAACAUGAGGAUCACCCAUGUCCCAGGUAGGUCGCGCAUAUAUGG [12.F] | 80.5 | 80.7 | 78.3 | 69.5 | 87.9 |
| CUCGAGGCCGGUGAUACCAGACACGAAACUAUACAUGAGGAUCACCCAUGUCAAACAACGGUCCCUUGGCAGCAUGGGUGUAUCC [Enzabemage] | 26.9 | 131 | 33.3 |  |  |
| GGUGGCGGGACUGAUACCAGCCACCACCGAUAGACCACAUGAGGAUCACCCAUGUUGGGUGGCCCUUGGCAGCAGUCUUGCGUCG [#1 Same State - Theophylline B Attempt #16 (HarryS)] | 35.9 | 92.9 | 323 | 149 | 21 |
| AUCCUCAAGAAUGAUACCAGACCAAACAUGAGGAUCACCCAUGUAUCAGGCAAUUGUUACGUCCCUUGGCAGCAUGUAAGCCGAC [Theo B SS t2] | 35.5 | 70.2 | 39.2 |  |  |
| AGAGUUAGACAAAAGUCUAGCUCACCAGAAGGAGCGUCCGAAAGGACAGGUAGGUCGCUGGUGCAUGAGGAUCACCCAUGUUCCU [ArgAS 20 #OpenEnded #AlternativeMS2] | 26.9 | 211 | 150 | 115 | 313 |
| GGUGGCGUGACGGAUACCAGCCACCGCCGCAAGGCCACAUGAGGAUCACCCAUGUUGGGUGGCCCUUGGCAGCUGUCGUGCGGCG [#1 Same State - Theophylline B Attempt #21 (HarryS)] | 121 | 464 | 378 |  |  |
| GCGACCCUGAGAUCCUACGUAACGUGAACACGAGGACCGGUACGGCCGCCACUCGAGAGAACAUGAGGAUCACCCAUGUCUGAGC [e-trypA-0] | 17.3 | 37.2 |  |  | 30.8 |
| CGGUUUGUGAUGGAUACCAGCAGAGUGAAUGUUUAUCCUGACAUGAGGAUCACCCAUGUGUGCCCUUGGCAGCUGUUGUGGGCUG [8.Z] | 54.4 | 100 | 63.7 |  |  |
| GCACCAGGUACGGAUACCAGCUAUAGGUACAGCGGAGGACAUGAGGAUCACCCAUGUGGUAGCCCUUGGCAGCUGUACCUGGUGC [EThB NP+V+V2 #1 +-Same Structure] | 17.7 | 23.9 | 15.5 | 14.9 | 40.4 |
| GGCCCGGACUUGGAAUGGGUGUUUCCUUCACGAGGACCGGUACGGCCGCCACUCGAAGACAUGAGGAUCACCCAUGUAGUCGACC [Soleti] | 20.3 | 100 | 18.2 | 21.7 | 41.1 |
